Experimental findings from a protein production outcome set (Wang et al. 2014) are described below.
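Also: failed if final PepcDB status was selected cloned or expressed and not failed if soluble or beyond.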

The data set in a line: label from the status in PepcDB records.
Turning to “MQNKARKNYIIYVLMLLLFGGLIYVAIEEGDRFSHHAANTLNTVQDGPFAMFLQFMQDNLHHPLTTLLIQIIAVLLMVRLFGYLFSLIGQPGVIGEIVAGIVLGPSVLGLFFPEAFHFLFPVHSLTNLELLSQVGLILFMFVIGMELDFSVLKNKINETLVISHAGILVPFFLGILSSYWIYETYAADHTPFLPFALFIGISMSITAFPVLARIIQERNMTKTPLGTLAIASAANDDVTAWCLLAVVIAISKAGSFASALYSVGLAVAYIAVMFLVVRPFLKKVGEVYANKEAINKTFVAFILLILIISSCLTEIIGIHALFGAFMAGVVMPSNLGFRKVMMEKVEDISLVFFLPLFFAFTGLRTEIGLINSPELWMVCLLLVTVAIVGKLGGCAIAARLVGESWKDSLTVGTLMNTRGLMELVALNIGYEMGVLPPSIFVILVIMALVTTFMTTPLLHLVERFFVHREEKLSLKRKLIFCFGRPESGRSLLSIYDLLFGKQLKKEHVIAAHYTVGTDLNPLDAQHYESESFALLNQRAVELNIQVDNHYRVTDKLVQEMIHFIRKEHPDMLLLGAGSHYRPEMPGTPGAILWLTLFRDKIDDIMEQVKCPVAVFVNRNYREGALVSFVLGGMIDVFLLSYLNIMLQNGHSVRLFLFETDDEEFHQCIDDLLAHYADQIVVVWFAGVEELVTKERDGLLVMSHLSYTKLSEDELVMRELSSLLVIRRNKNKGEKNERLEIG”, the protein production entry is “failed”.

Take “MQNMKNQVRGSGMDARSNPANVSDGLQNSSGHIGTNTRYRLTKLGEQMARLPIDPKIARILLAAKKHDCMAEILVIASALSIQDPRERPLEARDAAAKAHERFTDKQSDFLTYLNIWDSFQRERDKGLSNKQLVQWCRQYFLSHLRMREWRELHHQLAQTAIEMGLTTKEAAFRRPPEVKQLTSSENAGDQDLSAKLKQKQLDKKQHRTQIRATKEAGYEQIHRALLTGLIANVGMKSPDSNDYTGARGSRFHLFPASALFKAKPKWVMAAELVETTRLYARDVAVIQPEWIEQEAPHLVRYHYFEPHWEQKRGEVVASERVTFYGLTVLPRRPVSYGKVAPEEAREIFIRSALVAQEYDLKADFFVHNKKLIKEITELEHKSRKQDVLVDDEALFAFYHERLPDFYMADSVSEGLCPANPQQTTPSPVGKGWGEGKTVAAQTNFSATAANPLPNPLPQEREQSASVSTVSGSLKTMSCEARLNFCEAKTKTESSLHSQRLSENYTPPFSDGLRPANPQQTTPSPVGEGWGEGKTVAAQTNFSATAANPLPQEREQSASALTVSDDPKPKKQPASQKGRLKPLPLADIRTFEAWLKTAERDNPRLLFLSRDDLMQHAAAHITEEQFPKHWQTADGKFKLSYRFEPHHPLDGVTLTLPLTVLNRISPAALEWLVPGMIREKIQLQIKALPKQIRRICVPVPEFITQFLSQNPDRNAPILPQLAQAIAKTAGDIRILEQINQDEWAAFRLPEHCYFNLRIIDDGEQELAMGRDLIQIQQQLGKAATTTFRDNTQEFERDNVTAWDIGILPESIKFARGKQQLTGYLGLQKEKDGRIALRLFDTSAAAGHAHRLGVIELMKLQLKEQVKDLNKGIQGFTQAAMLLKHINADTLRDDLTQAVCDRAFIGEDKLPRNEKAFKEQIKRARSRLPAVKEALSRYLQETAAAYAELNGKLGKHPLTHLLRLRLQTLLAPGFATRTPWAQWPRLPIYLKAMTLRLEKYSSNPARDAAREADIQELEQMWQEKTDGLAKQGQPVSDGLAAFKWMIEELRVSLFAQELKTPYPVSVKRLLKMWEILL”: the protein production result is on record as “failed”.

For “MQNPAGNPYNLDSFWFEQLMSHPSLNHAKMATRIQDETLEREVADLVISTLNLDVSPESVDPEAPLYREGLGLDSIDILEIALVVSKRYGFQLRADNEDNVRIFGSLRSLCQHIAANRVECLEHHHHHH”, the protein production entry is reported as “not failed”.

As for “MQNPIDSLLYVKISAEQAGKIFENLESSIPLPIQLSEPGQKEDFKAENIKPEMILAGMLTVFAYDRENPHITYYRKIFNLLRPDIRKEMTEAAIIKIKNNDFDMAEEILLSLEGLNPDDGITKLNLALLMEERSQFCEMRELFEDALSFNKRAEELYSELILFEPPLPGVFFNAAYFFIKQKNYIKAKSLLKTYLEIENDSSETAEFRKAKASELLKTISEQALDDELFQKAYKCIDLGEEEKAAESIKLFLRKNPKVWNAWFLLGWALRRMGRWEDARSSFLKTIELLENSEISDKEPLCDVYNELAICLMELELFDEAEKHLINALSLDSENIKIISNLGTLALKQGKQEEAEAFFRTVLEINPDDKIALNVLGKPRA”, the protein production entry is on record as “failed”.

For the sequence “MQPETSAQYQHRFSQAIRGGEAADGLPQDRLNVYIRLIRNNIHSFIDRCYTETRQYFDSKEWSRLKEGFVRDARAQTPYFQEIPGEFLQYCQSLPLSDGILALMDFEYTQLLAEVAQIPDIPDIHYSNDSKYTPSPAAFIRQYRYDVTHDLQEAETALLIWRNAEDDVMYQTLDGFDMMLLEIMGSSALSFDTLAQTLVEFMPKADNWKNILLGKWSGWIEQRIIIPSLSAISENMEGNSPSQNHLSA”, the protein production entry is given as “not failed”.

For “MQPFRVTLVEDEPSHATLIQYHLNQLGAEVTVHPSGSAFFQHRSQLSTCDLLIVSDQLVDLSIFSLLDIVKEQTKQPSVLILTTGRHELIESSEHNLSYLQKPFAISELRAAIDYHKPSMGVTMNV”, the protein production result is “not failed”.

As to “MQPGRSKAIPSRNASDKAYEPAVLLMRARVLHQQGQLDEARSAYKKVLKKAPDNFMALHFYALAEYQSGNAELGIKTLKRALLADPKSAQAQSDMGSMLIAVGRFADSLASCDKAIAIDPTLMLAYANRGLALSALARYEDAIASFDKAIELMPDRADTWNDRGNALHKLGRYTEALESYDKAIEIDPLSDVAFMNRAGTYKDLKQLDKALASYDRALSIGKRPVQAGLARAETLLFMRNVKDAMATCTAVLKVEPNSAIALTLLGNCMASLGDAETAIALHSRALELMPNYEAAISSKIFSMDFCAGSDVEAQQAVRSSWWTQIGAPIYRACATPPTNDRDPDRRLVVGYVSADFRAHSAAFSFRPVIEHHDHNQFEVVLYSGVVVPDDSTRAFEAIADKWRDATLMSDQGLADQIKEDKVDILVDLSGHSNGNRLRVFARKPAPVQVTAWGHATGTGLPVMDYLLGDPVAIPVEDRHFYAEAVYDLPSIVIIEPVPQQWRSLELPFDRNGYLTYGSLNRISKISDAAIEVWSQVLAASPTSRLILKDHQIDDPAVRQTLLEKFGARGIAAGRITLLGSSSRQDHLETLKQIDLCLDPFPQAGGVSTWEALHMGVPVVSRLGHTVPSRVGCAVLAAAGLPDFIAPNDARYIEIASKPELERLRSIRRGLRDFILQRCGPAAYTRAVEDAYRTMWKRWCAAPFDEAKDRALRRGR”, the protein production result is recorded as “failed”.

In the case of “MQPGWMSSRFYQTCDWIWKLAYINLLWLSGTLLGLVVLGFLPATTAMFTVLRKWFTGNPDVAITRTFFQAYKNEFLKINLLGAVLLLGAYILYFNYMYLGTVEGTVHMVLSLGWYAFLILYIITLFYIIPAYVHYNLKLFQYIKTALIIGFVNPLALVTLAISIGLLGYLLYLVPGLIPFFGPSTFALIVMWCANMSFNRVEKKKEKLELAGQN”, the protein production entry is “failed”.

In the case of “MQQFATLSLASLLMLGTFTAFAAENGDAPASGWHIDDSATKGASGQQGMFDGVRLTEQQRQQMRDLMHQSRQDKPAFNTEDVKAMHKLVTAETFDEAAVRAQITRMMSVQIERQIQMTRVRNQMYNLLTPAQKEILELKHKQRMKEMQQQISMFNQMVAPSSGTTNHTETDSPELEHHHHHH”, the protein production result is reported as “not failed”.

As for “MQQLSFLPGEMTPGERSLILRALQTLDRHXHEPGVAFTSTRAAREWLILNMAGLEREEFRVLYLNNQNQLIAGETXFTGTINRTEVHPREVIKRALYHNAAAVVLAHNHPSGEVTPSKADRLITERLVQALGLVDIRVPDHLIVGGNQVFSFAEHGLL”, the protein production entry is “failed”.

Consider “MQQRRPVRRALLSVSDKAGIVEFAQALSARGVELLSTGGTARLLAEKGLPVTEVSDYTGFPEMMDGRVKTLHPKVHGGILGRRGQDDAIMEEHQIQPIDMVVVNLYPFAQTVAREGCSLEDAVENIDIGGPTMVRSAAKNHKDVAIVVKSSDYDAIIKEMDDNEGSLTLATRFDLAIKAFEHTAAYDSMIANYFGSMVPAYHGESKEAAGRFPRTLNLNFIKKLDMRYGENSHQQAAFYIEENVKEASVATATQVQGKALSYNNIADTDAALECVKEFAEPACVIVKHANPCGVAIGNSILDAYDRAYKTDPTSAFGGIIAFNRELDAETAQAIISRQFVEVIIAPSASEEALKITAAKQNVRVLTCGQWGERVPGLDFKRVNGGLLVQDRDLGMVGAEELRVVTKRQPSEQELRDALFCWKVAKFVKSNAIVYAKNNMTIGIGAGQMSRVYSAKIAGIKAADEGLEVKGSSMASDAFFPFRDGIDAAAAAGVTCVIQPGGSIRDDEVIAAADEHGIAMLFTDMRHFRH”, for which the protein production result is on record as “not failed”.

As for “MQQVFNVSVPVPDDVVIISKEEYLNLLSDNEQGKWWDIDNLQELLGIGRSKLINDILLNPDIKKEVDLSINPNGFIVYPKGKGSRYKILATKARKYFEDNFGSILLNS”, the protein production result was “failed”.

Turning to “MQREKTQTNLRLDEGGGSVWQKCSRHEGRFVCVAGVCPYCLHERLSSLCPDCAHDLPCSCTPRASVSSRGEGDVSFARIGSVGRVANLIECEPAFRRSTSITGPYFWSAKPEPILETEKDLKPGRGRWLWRLFRGNREEETKIKAAKVMKKSNSVAGEVLFSPTPVTSKGNGWYFPSPIKVFRQSRVSKMIFQQRSPLYRG”, the protein production result is given as “failed”.

Regarding “MQRGDISMTKRKDIHFRIEEKLLERFESALHYEGLKKTDVLTHAIQQFCMKVEYEKMNDVKRQYSVSNNLQTRIDTHKHYEEKQVNLDEIVIEHLQLQGRERILEVGCANGKFLSLLQANGHKGQLTGFDQSEAMLSEATKTNNLIEWRLGDAGKLPFEANYYDLIVARHMLYHMKDVEKTIQGFHKVIHPGGSLLATTNSNVTLPRIVEMCNRMLDTFDLPKTTSSVTPFCLENGKEILQSVFPTVEVSVIHNALVFHHATPIVNYISSMFPSLNIPDNTLLHAEMKDWLKEEVENELLLHNGIWRDPKTLAIYRCQKEKS”, the protein production result is on record as “failed”.

For the sequence “MQRKGDTPATLDLFADQTPQPRRDEQIGPGSWLFSGFALPAMPTLLLALEQTLGHSPFRHMLTPGGLSMSAALSSCGPLGWITDRHGYRYSDVDPQTGQPWPAMPDAFMQLAQSAALAAGYRGFVPDACLINRYIPGAKMSLHQDKDEHDHRWPVVSVSLGIPAIFQFGGMQRSDKTRRISLFHGDVVVWGGEDRLRFHGILPIKQAEHPLLGEQRINLTFRKAGRDSLEHHHHHH”, the protein production result is listed as “not failed”.

With “MQRLEVREPVPYPILVGEGVLKEVPPLAGPAALLFDRRVEGFAQEVAKALGVRHLLGLPGGEAAKSLEVYGKVLSWLAEKGLPRNATLLVVGGGTLTDLGGFVAATYLRGVAYLAFPTTTLAIVDASVGGKTGINLPEGKNLVGAFHFPQGVYAELRALKTLPLPTFKEGLVEAFKHGLIAGDEALLKVEDLTPQSPRLEAFLARAVAVKVRVTEEDPLEKGKRRLLNLGHTLGHALEAQTRHALPHGMAVAYGLLYAALLGRALGGEDLLPPVRRLLLWLSPPPLPPLAFEDLLPYLLRDKKKVSESLHWVVPLAPGRLVVRPLPEGLLREAFAAWREELKGLGLLR”, the protein production entry was “not failed”.

As for “MQRLNLGCGQYPKAGFLNVDVDPLAKADVFHDLSSFPYPFEDARFDLVEMDHVLEHLPSPRDAMREIWRILKPGGTLRLRVPHFSRGFSHYDHKCGFDVTFPLYFDPTFPGGYTGIPFEHVQTRLVWFAQPWLKRQVLGNFAFNVGKMLGMVFDALGNIAPLATSRLFCFWVGGYEEITFELRRPTNTLEHHHHHH”, the protein production result is “not failed”.

With “MQRLQASLERRQVGIYFAAMALGAVLAWHRPGLQVGEATLNLMLAGMLLATFMQVPLAGWRATLPGMRFLGVLLSVNFVLVPALVWGLAALLPADPMIRLAVLLVLLAPCIDYVVTFAQLGRADARALLAATPVLLCGQMLLLPLYLNVMLGSDAAALIRPGPFVQAFVWLIALPLAAATGVQWAAARSAAWRGAASVVGLLPVPATALVLATIVAAVAPRMALAGEAVSRVVPVYLLFAVIAPAAGWLAARRARLAAPQARAVAFSAGTRNSLVVLPLALAVPGGVPLLPALIVAQTLVELCAELLYVRVFGRAGKDRAGEG”, the protein production result was “failed”.
